Experimental findings from article PMC4274154, “DEAF1 Binds Unmethylated and Variably Spaced CpG Dinucleotide Motifs” are described below.

T1: DEAF1-FLAG (UniProt O75398 1-565)
T1 sequence: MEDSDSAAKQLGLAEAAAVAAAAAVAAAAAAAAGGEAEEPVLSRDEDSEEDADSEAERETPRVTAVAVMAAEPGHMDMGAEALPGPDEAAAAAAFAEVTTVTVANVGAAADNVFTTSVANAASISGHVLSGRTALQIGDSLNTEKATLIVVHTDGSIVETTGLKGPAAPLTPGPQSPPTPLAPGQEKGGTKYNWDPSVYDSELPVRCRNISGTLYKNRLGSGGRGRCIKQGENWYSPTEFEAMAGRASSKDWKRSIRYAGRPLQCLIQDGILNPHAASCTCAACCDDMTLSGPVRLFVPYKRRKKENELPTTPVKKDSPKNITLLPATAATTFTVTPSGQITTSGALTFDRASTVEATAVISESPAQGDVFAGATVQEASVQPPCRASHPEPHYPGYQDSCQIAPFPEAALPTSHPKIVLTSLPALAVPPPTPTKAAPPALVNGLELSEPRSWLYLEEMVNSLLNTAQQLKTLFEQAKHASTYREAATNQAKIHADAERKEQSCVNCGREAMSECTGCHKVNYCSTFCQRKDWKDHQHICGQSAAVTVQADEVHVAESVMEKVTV

B1: 8mut (TTCGGG to AACGCC in both half-sites) (dsDNA)
DNA 1: TTGAGAACGCCAAACAACGCCCTCAA
DNA 2: TTGAGGGCGTTGTTTGGCGTTCTCAA
B2: EIF4G3 promoter probe (dsDNA)
DNA 1: ACTTCGGACTTTTTCGGAAT
DNA 2: ATTCCGAAAAAGTCCGAAGT
B3: 6-space probe (two TTCGGG motifs) (dsDNA)
DNA 1: TTGAGTTCGGGTGTTCGGGCTCAA
DNA 2: TTGAGCCCGAACACCCGAACTCAA
B4: 11-space probe (dsDNA)
DNA 1: TTGAGTTCGGGAAAAAACTTCGGGCTCAA
DNA 2: TTGAGCCCGAAGTTTTTTCCCGAACTCAA
B5: 10-space probe (dsDNA)
DNA 1: TTGAGTTCGGGAAAAACTTCGGGCTCAA
DNA 2: TTGAGCCCGAAGTTTTTCCCGAACTCAA
B6: 6-space methylated probe (dsDNA)
DNA 1: TTGAGTTCGGGTGTTCGGGCTCAA
DNA 2: TTGAGCCCGAACACCCGAACTCAA
modifications: 5-methylcytosine on both strands at the CpG of the second half-site
B7: 9-space probe (dsDNA)
DNA 1: TTGAGTTCGGGAAAACTTCGGGCTCAA
DNA 2: TTGAGCCCGAAGTTTTCCCGAACTCAA
B8: 6mut (TTCGGG to AACGCC in both half-sites) (dsDNA)
DNA 1: TTGAGAACGCCTGAACGCCCTCAA
DNA 2: TTGAGGGCGTTCAGGCGTTCTCAA
B9: 8-space probe (two TTCGGG motifs) (dsDNA)
DNA 1: TTGAGTTCGGGAAACTTCGGGCTCAA
DNA 2: TTGAGCCCGAAGTTTCCCGAACTCAA

The target of this data set is T1, DEAF1-FLAG. Nature of the data set: EMSA; EMSA: 200 ng DEAF1-FLAG, 30 min at room temperature, 1x EMSA binding buffer (composition and pH not given), 1 ug dA:dT, 5% native polyacrylamide gel. Conditions: protein: recombinant; tags: FLAG; chain copies: 2; label: 32P.
For B1, the binding result is “no binding”. For B2 the value was “binds”. For B3 the value was “binds”; for B4, “binds”. The result for B5 reads “binds”; that for B6, “no binding”. Turning to B7, the binding result is on record as “binds”. The result for B8 reads “no binding”. For B9 the value was “binds”.
